The target of experiment [1] is T1, Recombinant human GhR-Fc protein (Homo sapiens, UniProt P10912).
T1 construct: purchased R&D Systems
The experiment in a line: Binding activity of hGhR binding peptide by surface plasmon resonance (SPR), Biacore T200, single-cycle kinetics. Particulars: human GhR-Fc immobilized on CM5 chip, KD calculated from ka and kd. As to the method: SPR assay was performed using Biacore T200 (cytiva: Former GE Healthcare). After the equilibration of Series S Sensor Chip CM5 (produced by cytiva: Former GE Healthcare) with Running Buffer (HBS-EP with 1% (v/v) DMSO), an EDC/NHS mixture was injected at a flow rate of 10 μL/min for 7 minutes to thereby activate the functional groups on sensor chip. Recombinant human GhR-Fc protein (R&D Systems) in 10 mM Acetate (pH4.0) was injected immobilized to at a flow rate of 5 μL/min. It took 7 minutes to immobilize the GhR on the substrate surfaces of the sensor chip. Then Ethanolamine was injected at a flow rate of 10 μL/min for 7 minutes. 1M Ethanolamine (aq.) was injected at a flow rate of 10 μL/min for 420 seconds for capping.
Using these Peptide Samples, kinetics of peptides against human GhR-Fc protein were measured. The method adopted for sample measurement was a single-cycle kinetics method. The analysis was conducted using the evaluation software provided with Biacore T200. A DMSO correction curve obtained by solvent correction measurements was applied for the analysis. Kinetics fitting was done on the difference data obtained by subtracting the baseline data from sample measurement data. KD values were calculated based on the association rate constant (ka) and dissociation rate constant (kd).
Furthermore, “obs. m/z [M+2H]2+” indicates the ESI-MS(+) observed value. Unless otherwise specified, this is bivalent ([M+2H]^2+).

Experiment [2] addresses Recombinant human GhR-Fc protein (R&D Systems) (human) (UniProt P10912). The experiment in a line: SPR, Biacore T200, single-cycle kinetics, GhR-Fc immobilised on CM5.

Starred links: 1 amine or outer side, 2 acyl side, 3 side chain; linkers in the order of their positions; H or OH if unused. Positions of bridges follow the written chain, without caps; N, C: chain ends. Non-standard residues stand in square brackets, D forms with d. Residues, ends and D or L forms follow the SMILES beside them. Groups on a side chain read outwards from the residue. *: point of attachment. X13 = NC(=O)[C@H](CCCCN*)NC(=O)COCCOCCNC(=O)COCCOCCNC(=O)CC[C@H](NC(=O)CC[C@H](NC(=O)CCCCCCCCCCCCC(=O)O)C(=O)O)C(=O)O; A4pipaa = 4-amino-1-(carboxymethyl)piperidine-4-carboxylic acid, O=C(C1(N[*:1])CCN(CC(=O)[*:3])CC1)[*:2]; X3 = NC(=O)[C@H](CCCCN*)NC(=O)CC[C@H](NC(=O)CC[C@H](NC(=O)CCCCCCCCCCCCCCC(=O)O)C(=O)O)C(=O)O; X10 = NC(=O)[C@H](CCCCN*)NC(=O)CC[C@H](NC(=O)CC[C@H](NC(=O)CCCc1ccc(I)cc1)C(=O)O)C(=O)O; X1 = 4‑(carboxymethyl)piperazine‑1‑carbonyl, O=C(O)CN1CCN(C(=O)*)CC1; Trp(1-CH2CO) = O=C([C@H](Cc1cn(CC(=O)[*:3])c2ccccc12)N[*:1])[*:2]; Trp(5-OMe) = COc1ccc2[nH]cc(C[C@H](N)C(=O)O)c2c1; Butanoyl(4-(4-I-phenyl)) = O=C(CCCc1ccc(I)cc1)*; Trp(5-OH) = N[C@@H](Cc1c[nH]c2ccc(O)cc12)C(=O)O; Phe(4-COOH) = N[C@@H](Cc1ccc(C(=O)O)cc1)C(=O)O; Trp(7-aza) = N[C@@H](Cc1c[nH]c2ncccc12)C(=O)O; Piperazinyl(4-CH2COOH) = O=C(O)CN1CCN(*)CC1; X7 = O=C(O)CN1CCC(N[*:1])(C(=O)[*:2])CC1; γGlu = O=C(O)[C@H](CCC(=O)[*:2])N[*:1]; Hexanoyl(6-Ph) = O=C(CCCCCc1ccccc1)*; Aad = N[C@@H](CCCC(=O)O)C(=O)O; NMeK = CN[C@@H](CCCCN)C(=O)O; Aib = CC(C)(N)C(=O)O; CO = O=C([*:1])[*:2]

A word on the Kd: it is a measure of binding affinity in units of concentration.

T1 sequence (P10912 with tags, fused parts or gaps limits assumed): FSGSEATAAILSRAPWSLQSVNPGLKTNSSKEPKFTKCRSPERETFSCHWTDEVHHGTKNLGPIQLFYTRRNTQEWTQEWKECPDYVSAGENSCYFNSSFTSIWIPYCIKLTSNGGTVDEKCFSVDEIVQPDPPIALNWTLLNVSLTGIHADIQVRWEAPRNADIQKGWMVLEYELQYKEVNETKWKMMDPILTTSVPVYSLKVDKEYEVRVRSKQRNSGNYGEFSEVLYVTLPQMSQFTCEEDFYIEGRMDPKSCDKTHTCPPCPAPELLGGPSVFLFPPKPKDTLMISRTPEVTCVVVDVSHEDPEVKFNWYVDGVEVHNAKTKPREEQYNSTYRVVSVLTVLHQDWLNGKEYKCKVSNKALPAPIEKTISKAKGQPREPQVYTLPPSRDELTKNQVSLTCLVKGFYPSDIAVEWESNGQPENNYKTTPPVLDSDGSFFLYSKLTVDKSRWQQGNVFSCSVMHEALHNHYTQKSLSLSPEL
Sequence of Recombinant human GhR-Fc protein (R&D Systems) (human) (P10912 19-264 limits assumed): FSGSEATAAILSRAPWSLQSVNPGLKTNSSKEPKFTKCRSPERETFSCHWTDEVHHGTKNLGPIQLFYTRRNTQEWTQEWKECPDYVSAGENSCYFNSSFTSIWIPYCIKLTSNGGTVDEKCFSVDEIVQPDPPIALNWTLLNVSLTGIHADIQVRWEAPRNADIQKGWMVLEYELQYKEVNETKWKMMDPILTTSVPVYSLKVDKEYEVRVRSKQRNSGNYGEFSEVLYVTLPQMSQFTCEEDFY

`CC(C)[C@@H]1NC(=O)[C@H](C(C)C)NC(=O)[C@@H]2CCCCNC(=O)Cn3cc(c4ccccc43)C[C@H](NC(=O)[C@H](CC(N)=O)NC(=O)[C@H](CO)NC1=O)C(=O)N[C@@H](Cc1ccc(O)cc1)C(=O)N[C@@H](CCCCNC(=O)N1CCN(CC(=O)O)CC1)C(=O)N[C@@H](Cc1c[nH]c3ccc(O)cc13)C(=O)NC(C)(C)C(=O)N[C@@H](C(C)C)C(=O)N[C@H](C(=O)NCC(=O)N1CCC[C@H]1C(=O)N[C@H](CO)C(=O)N[C@H](CO)C(=O)N[C@H](CO)C(=O)NCCCC[C@H](NC(=O)CC[C@H](NC(=O)CC[C@H](NC(=O)CCCCCCCCCCCCCCC(=O)O)C(=O)O)C(=O)O)C(N)=O)CSCC(=O)N[C@@H](Cc1ccc(O)cc1)C(=O)N2C` [Compound 28] ({CH2CO}-Y[NMeK]VVSN[Trp(1-CH2CO)]YK([CO-Piperazinyl(4-CH2COOH)])[Trp(5-OH)][Aib]VCGP[dS][dS][dS]-X3; lactam 2-7; thioether N-13): the Kd in experiment [1] is 2.71 nM. Turning to `CC(C)[C@@H]1NC(=O)[C@H](C(C)C)NC(=O)[C@@H]2CCCCNC(=O)Cn3cc(c4ccccc43)C[C@H](NC(=O)[C@H](CC(N)=O)NC(=O)[C@H](CO)NC1=O)C(=O)N[C@@H](Cc1ccc(C(=O)O)cc1)C(=O)N[C@@H](CCCCN)C(=O)N[C@@H](Cc1c[nH]c3ccc(O)cc13)C(=O)NC1(CCN(CC(=O)O)CC1)C(=O)N[C@@H](C(C)C)C(=O)N[C@H](C(=O)NCCCC[C@H](NC(=O)CC[C@H](NC(=O)CC[C@H](NC(=O)CCCc1ccc(I)cc1)C(=O)O)C(=O)O)C(N)=O)CSCC(=O)N[C@@H](Cc1ccc(C(=O)O)cc1)C(=O)N2C` [Compound 8] ({CH2CO}-[Phe(4-COOH)][NMeK]VVSN[Trp(1-CH2CO)][Phe(4-COOH)]K[Trp(5-OH)][X7]VC-X10; lactam 2-7; thioether N-13), the equilibrium dissociation constant (Kd) in experiment [1] was 2.08 nM. With `COc1ccc2[nH]cc(C[C@@H]3NC(=O)[C@H](CC(N)=O)NC(=O)[C@H](CO)NC(=O)[C@H](C(C)C)NC(=O)[C@H](C(C)C)NC(=O)[C@H](CCCCNC(=O)CC[C@H](NC(=O)CC[C@H](NC(=O)CCCc4ccc(I)cc4)C(=O)O)C(=O)O)N(C)C(=O)[C@H](Cc4ccc(O)cc4)NC(=O)CSC[C@@H](C(=O)NCC(=O)N4CCC[C@H]4C(=O)N[C@H](CO)C(=O)N[C@H](CO)C(=O)N[C@H](CO)C(N)=O)NC(=O)[C@H](C(C)C)NC(=O)C(C)(C)NC(=O)[C@H](Cc4c[nH]c5ccc(O)cc45)NC(=O)[C@H](CCCCNC(=O)N4CCN(CC(=O)O)CC4)NC(=O)[C@H](Cc4ccc(C(=O)O)cc4)NC3=O)c2c1` [Compound 49] ({CH2CO}-Y[NMeK]([γGlu-γGlu-Butanoyl(4-(4-I-phenyl))])VVSN[Trp(5-OMe)][Phe(4-COOH)]K([CO-Piperazinyl(4-CH2COOH)])[Trp(5-OH)][Aib]VCGP[dS][dS][dS]-NH2; thioether N-13), in experiment [1], the dissociation constant (Kd) is 6.31 nM. Still for that read-out and setting: next, `CC(C)[C@@H]1NC(=O)[C@H](C(C)C)NC(=O)[C@@H]2CCCCNC(=O)Cn3cc(c4ccccc43)C[C@H](NC(=O)[C@H](CC(N)=O)NC(=O)[C@H](CO)NC1=O)C(=O)N[C@@H](Cc1ccc(C(=O)O)cc1)C(=O)N[C@@H](CCCC(N)=O)C(=O)N[C@@H](Cc1c[nH]c3ccc(O)cc13)C(=O)NC(C)(C)C(=O)N[C@@H](C(C)C)C(=O)N[C@H](C(=O)NCCCC[C@H](NC(=O)CC[C@H](NC(=O)CC[C@H](NC(=O)CCCc1ccc(I)cc1)C(=O)O)C(=O)O)C(N)=O)CSCC(=O)N[C@@H](Cc1ccc(C(=O)O)cc1)C(=O)N2C` [Compound 5] ({CH2CO}-[Phe(4-COOH)][NMeK]VVSN[Trp(1-CH2CO)][Phe(4-COOH)][Aad](NH2)[Trp(5-OH)][Aib]VC-X10; lactam 2-7; thioether N-13): 3.07 nM; `CC(C)[C@@H]1NC(=O)[C@H](C(C)C)NC(=O)[C@@H]2CCCCNC(=O)Cn3cc(c4ccccc43)C[C@H](NC(=O)[C@H](CC(N)=O)NC(=O)[C@H](CO)NC1=O)C(=O)N[C@@H](Cc1ccc(C(=O)O)cc1)C(=O)N[C@@H](CCCCN)C(=O)N[C@@H](Cc1c[nH]c3ccc(O)cc13)C(=O)NC(C)(C)C(=O)N[C@@H](C(C)C)C(=O)N[C@H](C(=O)NCCCC[C@H](NC(=O)COCCOCCNC(=O)COCCOCCNC(=O)CC[C@H](NC(=O)CC[C@H](NC(=O)CCCCCCCCCCCCC(=O)O)C(=O)O)C(=O)O)C(N)=O)CSCC(=O)N[C@@H](Cc1ccc(C(=O)O)cc1)C(=O)N2C` [Compound 62] ({CH2CO}-[Phe(4-COOH)][NMeK]VVSN[Trp(1-CH2CO)][Phe(4-COOH)]K[Trp(5-OH)][Aib]VC-X13; lactam 2-7; thioether N-13): 3.88 nM; `COc1ccc2[nH]cc(C[C@@H]3NC(=O)[C@H](CC(N)=O)NC(=O)[C@H](CO)NC(=O)[C@H](C(C)C)NC(=O)[C@H](C(C)C)NC(=O)[C@H](CCCCNC(=O)CC[C@H](NC(=O)CCCc4ccc(I)cc4)C(=O)O)N(C)C(=O)[C@H](Cc4ccc(O)cc4)NC(=O)CSC[C@@H](C(=O)NCC(=O)N4CCC[C@H]4C(=O)N[C@H](CO)C(=O)N[C@H](CO)C(=O)N[C@H](CO)C(N)=O)NC(=O)[C@H](C(C)C)NC(=O)C(C)(C)NC(=O)[C@H](Cc4c[nH]c5ccc(O)cc45)NC(=O)[C@H](CCCCNC(=O)N4CCN(CC(=O)O)CC4)NC(=O)[C@H](Cc4ccc(C(=O)O)cc4)NC3=O)c2c1` [Compound 48] ({CH2CO}-Y[NMeK]([γGlu-Butanoyl(4-(4-I-phenyl))])VVSN[Trp(5-OMe)][Phe(4-COOH)]K([CO-Piperazinyl(4-CH2COOH)])[Trp(5-OH)][Aib]VCGP[dS][dS][dS]-NH2; thioether N-13): 4.35 nM.

With {CH2CO}-[Phe(4-COOH)]KVVSN[Trp(1-CH2CO)][Phe(4-COOH)]K[Trp(5-OH)][Aib]VCK([Glu-Glu-Butanoyl(4-(4-I-phenyl))])-NH2 (thioether N-13; lactam 2-7; not fully specified (residue 2)) [GhR_PD_217], the Kd in experiment [2] was found to be 1.46 nM.

B1: GhR_PD_212 (peptide)
peptide: {CH2CO}-[Phe(4-COOH)]KVVSN[Trp(5-OMe)][Phe(4-COOH)]K[Trp(5-OH)][Aib]VC-NH2
modifications: thioether N-13; not fully specified (residue 2); also: albumin binder E-E-4IPhpCO, attachment site not given here
Take B1: the Kd in experiment [2] stood at 2.96 nM.

B2: GhR_PD_203 (peptide)
peptide: {CH2CO}-YKVVSN[Trp(7-aza)][Phe(4-COOH)]K[Trp(5-OH)][Aib]VC-NH2
modifications: thioether N-13; not fully specified (residue 2); also: albumin binder E-4IPhpCO, attachment site not given here
In the case of B2, the Kd in experiment [2] turned out to be 3.95 nM.

B3: GhR_PD_208 (peptide)
peptide: {CH2CO}-[Phe(4-COOH)]KVVSN[Trp(5-OMe)][Phe(4-COOH)]K[Trp(5-OH)][Aib]VC-NH2
modifications: thioether N-13; not fully specified (residue 2); also: albumin binder E-4IPhpCO, attachment site not given here
For the molecule B3, in experiment [2], the Kd was 2.19 nM.

B4: GhR_PD_211 (peptide)
peptide: {CH2CO}-YKVVSN[Trp(5-OMe)][Phe(4-COOH)]K[Trp(5-OH)][Aib]VC-NH2
modifications: thioether N-13; not fully specified (residue 2); also: albumin binder E-E-4IPhpCO, attachment site not given here
Turning to B4, the Kd in experiment [2] amounted to 3.36 nM.

B5: GhR_PD_206 (peptide)
peptide: {CH2CO}-YKVVSN[Trp(5-OMe)]YK(X1)[Trp(5-OH)][Aib]VC-NH2
modifications: thioether N-13; not fully specified (residue 2); also: albumin binder E-4IPhpCO, attachment site not given here
B5: the Kd in experiment [2] was determined as 9.67 nM. On to {CH2CO}-Y[MeK]([Glu-Glu-Butanoyl(4-(4-I-phenyl))])VVSN[Trp(5-OMe)][Phe(4-COOH)]K(X1)[Trp(5-OH)][Aib]VC-NH2 (thioether N-13) [GhR_PD_227], for which the dissociation constant (Kd) in experiment [2] came to 7.38 nM.

Take {CH2CO}-[Phe(4-COOH)][NMeK]([Glu-Hexanoyl(6-Ph)])VVSN[Trp(5-OMe)][Phe(4-COOH)]K[Trp(5-OH)][4‑amino‑1‑(carboxymethyl)piperidine‑4‑carboxylic acid]VC-NH2 (thioether N-13) [GhR_PD_256]: the Kd in experiment [2] was 2.82 nM. With {CH2CO}-Y[MeK]([Glu-Glu-Butanoyl(4-(4-I-phenyl))])VVSN[Trp(5-OMe)][Phe(4-COOH)]K[Trp(5-OH)][A4pipaa]VC-NH2 (thioether N-13) [GhR_PD_228], in experiment [2], the Kd is 4.13 nM.

The values are drawn from US20250332264A1, “GhR-BINDING PEPTIDE AND COMPOSITION COMPRISING SAME” (priority 2021, published 2025).
